Results taken from paper PMC2847151 (Neurogenetics, 2009).
Where a chain is given by its changes, count along the chain named. In names and notes the source's numbering stands.

Tested on: Mediator
Assay: Binding to Mediator upon transfection into HeLa cells
Conditions: wild-type vs mutant

B1: wildtype: wild-type MED25 protein (ARC92/ACID1); also as GAL4 fusion, full-length clone (1–754) (protein, UniProt Q71SY5 1-747, looked up)
chain: MVPGSEGPARAGSVVADVVFVIEGTANLGPYFEGLRKHYLLPAIEYFNGGPPAETDFGGDYGGTQYSLVVFNTVDCAPESYVQCHAPTSSAYEFVTWLDGIKFMGGGGESCSLIAEGLSTALQLFDDFKKMREQIGQTHRVCLLICNSPPYLLPAVESTTYSGCTTENLVQQIGERGIHFSIVSPRKLPALRLLFEKAAPPALLEPLQPPTDVSQDPRHMVLVRGLVLPVGGGSAPGPLQSKQPVPLPPAAPSGATLSAAPQQPLPPVPPQYQVPGNLSAAQVAAQNAVEAAKNQKAGLGPRFSPITPLQQAAPGVGPPFSQAPAPQLPPGPPGAPKPPPASQPSLVSTVAPGSGLAPTAQPGAPSMAGTVAPGGVSGPSPAQLGAPALGGQQSVSNKLLAWSGVLEWQEKPKPASVDANTKLTRSLPCQVYVNHGENLKTEQWPQKLIMQLIPQQLLTTLGPLFRNSRMVQFHFTNKDLESLKGLYRIMGNGFAGCVHFPHTAPCEVRVLMLLYSSKKKIFMGLIPYDQSGFVNGIRQVITNHKQVQQQKLEQQQRGMGGQQAPPGLGPILEDQARPSQNLLQLRPPQPQPQGTVGASGATGQPQPQGTAQPPPGAPQGPPGAASGPPPPGPILRPQNPGANPQLRSLLLNPPPPQTGVPPPQASLHHLQPPGAPALLPPPHQGLGQPQLGPPLLHPPPAQSWPAQLPPRAPLPGQMLLSGGPRGPVPQPGLQPSVMEDDILMDLI
modifications: full-length also GAL4 fusion
  binding to Mediator: bound indistinguishably to Mediator

B2: mutant MED25: MED25 protein carrying the p.A335V mutation; also as GAL4 fusion, full-length clone (1–754) (protein, UniProt Q71SY5 1-747, looked up, variant A335V)
chain: B1 chain with A335V
modifications: full-length also GAL4 fusion
  binding to Mediator: bound indistinguishably to Mediator
